Values quoted from earlier work, collected in paper PMC11267001.

Molecular target: DOCK5ΔC/ELMO1 DOCK5 1-1642 (Homo sapiens) (UniProt Q9H7D0)

Question: With RhoG (from UniProt P84095) as the substance, how does the Kd read?
Answer: Its Kd is 10 µM.
